Here are results for three molecules from patent US20110085970A1 (published 2011).

Experiment [1] has as its target T1, human O8E (B7-H4) expressed on cells (human, UniProt Q7Z7D3 25-282).
T1 construct: Full length O8E on transfected HEK, CHO and SKOV3 cells, or endogenous on SKBR3 and ZR-75 cells and in human tumour biopsies; also called B7S1; B7x
T1 sequence: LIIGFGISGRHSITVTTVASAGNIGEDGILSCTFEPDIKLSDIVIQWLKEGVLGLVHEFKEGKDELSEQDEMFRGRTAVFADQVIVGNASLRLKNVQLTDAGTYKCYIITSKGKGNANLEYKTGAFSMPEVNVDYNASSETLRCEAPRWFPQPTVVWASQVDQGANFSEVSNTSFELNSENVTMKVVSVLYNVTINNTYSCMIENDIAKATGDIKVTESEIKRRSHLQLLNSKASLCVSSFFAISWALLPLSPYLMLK
Briefly: titration of labelled antibody on O8E-transfected cells (Scatchard set-up), sigmoidal dose response fit.
Protocol: HEK cells were transfected with full length O8E using standard techniques and grown in RPMI media containing 10% fetal bovine serum (FBS). […] Millipore plates (MAFB NOB) were coated with 1% nonfat dry milk in water and stored a 4° C. overnight. The plates were washed three times with 0.2 ml of binding buffer. Fifty microliters of buffer alone was added to the maximum binding wells (total binding). Twenty-five microliters of buffer alone was added to the control wells (non-specific binding). Varying concentration of ¹²⁵I-anti-O8E antibody was added to all wells in a volume of 25 μl. (In some cases FITC labeled antibodies were used for the titration since unlabeled material was not available, binding may be compromised in these instances.) Varying concentrations of unlabeled antibody at 100 fold excess was added in a volume of 25 μl to control wells and 25 μl of O8E transfected CHO cells (2×10⁶ cells/ml) in binding buffer were added to all wells. The plates were incubated for 2 hours at 200 RPM on a shaker at 4° C. At the completion of the incubation the Millipore plates were washed three times with 0.2 ml of cold wash buffer (24 mM Tris pH 7.2, 500 mM NaCl, 2.7 mM KCl, 2 mM Glucose, 1 mM CaCl₂, 1 mM MgCl₂, 0.1% BSA.). The filters were removed and counted in a gamma counter. […]

In experiment [2] the target is T1, human O8E (B7-H4) expressed on cells. Briefly: titration of labelled antibody on O8E-transfected cells (Scatchard set-up), sigmoidal dose response fit; BOTTOM and TOP fixed for incomplete curve.
Experiment [3] has as its target T2, Recombinant Penta-B7H4 protein with a C-9 tag (human, UniProt Q7Z7D3 25-259).
T2 construct: also called Penta-O8E; Penta-B7H4-C9; not shown: 'Penta' part and C-9 tag
T2 sequence: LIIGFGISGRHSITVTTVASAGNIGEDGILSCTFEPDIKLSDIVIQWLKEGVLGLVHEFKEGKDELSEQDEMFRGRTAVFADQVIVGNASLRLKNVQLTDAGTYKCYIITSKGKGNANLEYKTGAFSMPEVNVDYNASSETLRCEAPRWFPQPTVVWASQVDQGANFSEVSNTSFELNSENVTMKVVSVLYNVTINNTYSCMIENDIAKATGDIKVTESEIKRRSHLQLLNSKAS
Briefly: ELISA: anti-mouse Fc coat, monoclonal anti-C9 at 0.6 ug/ml, Penta-B7H4 titrated (varied component), human antibody fixed at 1 ug/ml. A general note: In an ELISA, binding on a coated surface is turned into a signal by an enzyme label.

B1: 13D12 human monoclonal antibody (anti-O8E / anti-B7-H4) (antibody, V domains shown)
VH: QVQLQQWGAGLLKPSETLSLTCAVYGGSFSGYYWSWIRQPPGKGLEWIGKINHSGSTNYNPSLKSRVTISVDTSKNQFSLKLNSVTAADTAVYYCARELRYFENYYYGMDVWGQGTTVTVSS
VL: not shown
notes: Hybridoma-derived fully human IgG with a kappa light chain (VK A27); also called 13D12.G10
B1: the EC50 (usually the concentration needed to bring the measured effect to its halfway point) in experiment [1] was determined as 0.746 nM.

B2: 12E1 human monoclonal antibody (anti-O8E / anti-B7-H4) (antibody, V domains shown)
VH: EVQLVESGGGLVQPGRSLRLSCVASGFTFDDYAMHWVRQAPGKGLEWVSGISWNSGSIGYADSVKGRFTISRDNAKNSLYLQMNSLRAEDTALYYCTKALYGSGSSDFYYYGMDVWGQGTTVAVSS
VL: EIVLTQSPATLSLSPGERATLSCRASQSVSSYLAWYQQKPGQAPRLLIYDASNRATGIPARFSGSGSGTDFTLTISSLEPEDFAVYYCQQRRTFGQGTKVEIK
notes: Hybridoma-derived fully human IgG with a kappa light chain (VK L6/JK1); also called 12E1.G9
Molecule B2 showed an EC50 in experiment [2] of around 19.8 nM. The EC50 (read off the curve) (in general, the concentration that produces a half-maximal response) in experiment [3] is around 0.05 µg/mL.

B3: 1G11 human monoclonal antibody (anti-O8E / anti-B7-H4) (antibody, V domains shown)
VH: QVQLQQWGAGLLKPSETLSLTCAVYGGSFSDYFWTWIRQPPGKGLEWIGEINHSGTTNYNPSLKSRVTISADTSKNQFSLRLSSVTAADTAVYYCARLSSWSNWAFEYWGQGTLVTVSS
VL: EIVLTQFPGTLSLSPGERATLSCRASQSVSSTYLAWYQQKPGQAPRVLIYGASRRATGIPDRFSGSGSGTDFTLTISRLEPEDFAVYYCQQYGSSPLTFGGGTKVEIK
notes: Hybridoma-derived fully human IgG with a kappa light chain (VK A27); also called 1G11.H11-FITC; 1G11.H1
With B3, the EC50 in experiment [1] stood at 1.69 nM.
